Test results: the supplement of paper PMC10065799, “High-throughput profiling of sequence recognition by tyrosine kinases and SH2 domains using bacterial peptide display” (eLife, 2023)

Legend:
AncSZ = test: phosphorylation enrichment, bacterial display (enrichment ratio); higher = better substrate or ligand; peptides without Tyr show the background
EPHB1 = EPHB1 (UniProt P54762); test: as above
EPHB2 = EPHB2 (UniProt P29323); test: as above
FGFR1 = FGFR1 (UniProt P11362); test: as above
FGFR3 = FGFR3 (UniProt P22607); test: as above
Fer (mouse) = test: as above
Fes = Fes (UniProt P07332); test: as above
Fyn = Fyn (UniProt P06241); test: as above
Hck = Hck (UniProt P08631); test: as above
Jak2 = Jak2 (UniProt O60674); test: as above
MERTK = MERTK (UniProt Q12866); test: as above
c-Abl (mouse) = test: as above
c-Src = test: as above
Grb2 SH2 = Grb2 SH2 (UniProt P62993); test: SH2 binding enrichment of the phosphorylated peptide, bacterial display (enrichment ratio); higher = better substrate or ligand; peptides without Tyr show the background
SHP2-C SH2 = test: as above
c-Src SH2 = test: as above
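For SH2 binding enrichment of the phosphorylated peptide, bacterial display in this document: peptide library displayed on the E. coli surface as eCPX fusions, selected cells deep-sequenced, score is each peptide's frequency after selection divided by its frequency in the input.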
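For phosphorylation enrichment, bacterial display in this document: 11-residue human phosphosite peptides and single-mutation variants displayed on the E. coli surface, counted by deep sequencing, each peptide's frequency after selection divided by its frequency in the unselected input library; frequency after pTyr selection over input frequency; kinase dosed for 20-30% of maximal phosphorylation in three min.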

Chain of FGFR3 (P22607 whole entry, looked up): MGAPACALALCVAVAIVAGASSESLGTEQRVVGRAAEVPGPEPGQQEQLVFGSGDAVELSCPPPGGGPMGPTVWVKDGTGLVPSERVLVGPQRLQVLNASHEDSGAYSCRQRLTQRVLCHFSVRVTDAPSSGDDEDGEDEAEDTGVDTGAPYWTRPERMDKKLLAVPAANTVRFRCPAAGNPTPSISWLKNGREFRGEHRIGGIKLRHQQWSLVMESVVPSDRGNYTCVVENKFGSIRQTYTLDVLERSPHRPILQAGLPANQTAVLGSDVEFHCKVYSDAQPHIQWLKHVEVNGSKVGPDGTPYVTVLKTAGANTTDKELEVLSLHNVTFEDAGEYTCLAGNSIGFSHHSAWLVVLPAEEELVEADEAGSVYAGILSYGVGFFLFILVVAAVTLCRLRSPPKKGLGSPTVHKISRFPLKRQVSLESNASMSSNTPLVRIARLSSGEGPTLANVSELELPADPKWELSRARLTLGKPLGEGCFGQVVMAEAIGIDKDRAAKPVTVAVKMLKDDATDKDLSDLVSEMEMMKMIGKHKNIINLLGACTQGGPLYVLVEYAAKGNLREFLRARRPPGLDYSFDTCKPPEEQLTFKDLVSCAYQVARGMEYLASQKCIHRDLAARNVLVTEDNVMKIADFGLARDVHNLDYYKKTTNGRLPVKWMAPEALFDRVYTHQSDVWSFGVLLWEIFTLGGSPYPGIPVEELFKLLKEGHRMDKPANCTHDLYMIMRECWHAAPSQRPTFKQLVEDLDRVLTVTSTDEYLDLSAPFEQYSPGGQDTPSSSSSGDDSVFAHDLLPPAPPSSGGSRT
Chain of EPHB2 (P29323 whole entry, looked up): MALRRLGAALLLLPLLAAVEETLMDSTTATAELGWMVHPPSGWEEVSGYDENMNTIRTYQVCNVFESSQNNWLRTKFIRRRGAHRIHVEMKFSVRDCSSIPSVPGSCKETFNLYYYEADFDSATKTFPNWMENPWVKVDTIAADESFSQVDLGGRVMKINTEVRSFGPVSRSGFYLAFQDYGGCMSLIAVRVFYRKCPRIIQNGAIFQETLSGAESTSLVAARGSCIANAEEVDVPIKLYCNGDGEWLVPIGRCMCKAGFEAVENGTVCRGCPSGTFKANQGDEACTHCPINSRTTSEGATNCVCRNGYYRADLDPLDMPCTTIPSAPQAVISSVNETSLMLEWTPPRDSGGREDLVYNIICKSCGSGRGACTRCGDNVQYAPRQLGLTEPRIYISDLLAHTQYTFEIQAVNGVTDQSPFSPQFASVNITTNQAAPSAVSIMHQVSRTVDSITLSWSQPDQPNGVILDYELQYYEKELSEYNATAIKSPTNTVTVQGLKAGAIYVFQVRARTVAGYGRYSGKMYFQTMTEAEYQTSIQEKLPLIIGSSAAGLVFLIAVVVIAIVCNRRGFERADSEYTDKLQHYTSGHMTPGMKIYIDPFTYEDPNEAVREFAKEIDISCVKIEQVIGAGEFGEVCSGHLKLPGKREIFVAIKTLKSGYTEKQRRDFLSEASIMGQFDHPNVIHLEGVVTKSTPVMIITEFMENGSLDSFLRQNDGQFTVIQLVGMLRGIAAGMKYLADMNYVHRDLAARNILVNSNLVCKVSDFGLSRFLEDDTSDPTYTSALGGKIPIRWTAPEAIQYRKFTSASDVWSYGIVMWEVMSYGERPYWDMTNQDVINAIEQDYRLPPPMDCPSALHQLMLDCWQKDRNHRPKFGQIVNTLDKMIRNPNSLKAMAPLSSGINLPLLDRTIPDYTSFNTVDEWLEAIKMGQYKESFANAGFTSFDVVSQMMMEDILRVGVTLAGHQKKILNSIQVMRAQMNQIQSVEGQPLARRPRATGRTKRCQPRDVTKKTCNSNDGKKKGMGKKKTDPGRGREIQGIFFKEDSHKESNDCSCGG
Chain of Fes (P07332 whole entry, looked up): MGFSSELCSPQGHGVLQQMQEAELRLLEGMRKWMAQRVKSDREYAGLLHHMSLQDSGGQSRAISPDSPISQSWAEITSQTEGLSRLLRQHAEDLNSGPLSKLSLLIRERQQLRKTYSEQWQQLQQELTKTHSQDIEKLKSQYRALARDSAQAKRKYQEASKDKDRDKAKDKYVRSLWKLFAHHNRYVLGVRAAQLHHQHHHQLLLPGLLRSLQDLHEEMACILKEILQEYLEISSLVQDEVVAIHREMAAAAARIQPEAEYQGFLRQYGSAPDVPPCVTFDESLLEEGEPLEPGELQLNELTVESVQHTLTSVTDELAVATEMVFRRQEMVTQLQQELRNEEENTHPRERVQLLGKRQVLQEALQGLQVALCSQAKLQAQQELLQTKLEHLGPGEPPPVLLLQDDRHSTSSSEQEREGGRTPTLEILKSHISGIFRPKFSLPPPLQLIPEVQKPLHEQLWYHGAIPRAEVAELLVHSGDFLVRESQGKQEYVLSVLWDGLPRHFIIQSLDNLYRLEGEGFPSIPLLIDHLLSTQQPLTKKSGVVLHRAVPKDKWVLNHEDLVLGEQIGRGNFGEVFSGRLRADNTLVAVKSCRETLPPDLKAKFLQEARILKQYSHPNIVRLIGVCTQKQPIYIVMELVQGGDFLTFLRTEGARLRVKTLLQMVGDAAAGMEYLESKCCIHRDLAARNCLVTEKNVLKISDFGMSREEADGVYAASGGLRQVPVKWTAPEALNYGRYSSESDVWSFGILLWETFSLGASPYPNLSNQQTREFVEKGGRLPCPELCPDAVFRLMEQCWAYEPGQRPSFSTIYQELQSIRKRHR
Chain of Grb2 SH2 (P62993 whole entry, looked up): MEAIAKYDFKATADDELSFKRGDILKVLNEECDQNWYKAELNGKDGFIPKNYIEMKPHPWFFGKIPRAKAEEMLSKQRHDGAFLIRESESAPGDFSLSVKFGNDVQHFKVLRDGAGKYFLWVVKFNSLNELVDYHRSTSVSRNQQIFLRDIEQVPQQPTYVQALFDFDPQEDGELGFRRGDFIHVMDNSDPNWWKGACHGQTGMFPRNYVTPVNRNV
Chain of Jak2 (O60674 whole entry, looked up): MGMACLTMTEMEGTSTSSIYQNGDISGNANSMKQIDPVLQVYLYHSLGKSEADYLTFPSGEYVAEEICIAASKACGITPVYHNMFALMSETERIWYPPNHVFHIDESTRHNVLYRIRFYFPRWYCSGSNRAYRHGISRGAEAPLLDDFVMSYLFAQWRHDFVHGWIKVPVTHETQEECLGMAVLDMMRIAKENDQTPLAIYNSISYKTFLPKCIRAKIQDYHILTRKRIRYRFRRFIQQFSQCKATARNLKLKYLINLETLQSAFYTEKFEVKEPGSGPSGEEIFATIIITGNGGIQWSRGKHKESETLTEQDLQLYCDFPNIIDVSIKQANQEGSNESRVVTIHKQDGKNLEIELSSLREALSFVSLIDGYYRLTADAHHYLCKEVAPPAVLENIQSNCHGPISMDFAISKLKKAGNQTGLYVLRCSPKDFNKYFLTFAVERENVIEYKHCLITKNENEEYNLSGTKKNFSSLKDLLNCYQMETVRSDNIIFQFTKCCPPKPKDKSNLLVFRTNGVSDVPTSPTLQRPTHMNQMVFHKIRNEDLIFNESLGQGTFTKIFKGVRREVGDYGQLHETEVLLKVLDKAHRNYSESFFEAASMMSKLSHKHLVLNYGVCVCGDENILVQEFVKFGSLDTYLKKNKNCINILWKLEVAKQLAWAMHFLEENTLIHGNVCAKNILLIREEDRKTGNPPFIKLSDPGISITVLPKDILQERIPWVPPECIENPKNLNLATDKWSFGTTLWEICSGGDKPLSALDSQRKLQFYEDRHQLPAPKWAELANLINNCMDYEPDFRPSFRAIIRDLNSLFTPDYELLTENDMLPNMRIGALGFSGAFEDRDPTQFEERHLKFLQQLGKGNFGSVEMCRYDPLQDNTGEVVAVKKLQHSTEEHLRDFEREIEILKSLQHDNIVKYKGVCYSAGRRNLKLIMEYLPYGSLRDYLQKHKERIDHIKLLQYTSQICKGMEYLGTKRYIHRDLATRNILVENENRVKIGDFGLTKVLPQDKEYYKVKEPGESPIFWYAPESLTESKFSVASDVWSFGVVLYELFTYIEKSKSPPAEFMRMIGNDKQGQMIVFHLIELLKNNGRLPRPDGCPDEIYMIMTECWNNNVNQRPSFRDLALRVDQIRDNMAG
Chain of Fyn (P06241 whole entry, looked up): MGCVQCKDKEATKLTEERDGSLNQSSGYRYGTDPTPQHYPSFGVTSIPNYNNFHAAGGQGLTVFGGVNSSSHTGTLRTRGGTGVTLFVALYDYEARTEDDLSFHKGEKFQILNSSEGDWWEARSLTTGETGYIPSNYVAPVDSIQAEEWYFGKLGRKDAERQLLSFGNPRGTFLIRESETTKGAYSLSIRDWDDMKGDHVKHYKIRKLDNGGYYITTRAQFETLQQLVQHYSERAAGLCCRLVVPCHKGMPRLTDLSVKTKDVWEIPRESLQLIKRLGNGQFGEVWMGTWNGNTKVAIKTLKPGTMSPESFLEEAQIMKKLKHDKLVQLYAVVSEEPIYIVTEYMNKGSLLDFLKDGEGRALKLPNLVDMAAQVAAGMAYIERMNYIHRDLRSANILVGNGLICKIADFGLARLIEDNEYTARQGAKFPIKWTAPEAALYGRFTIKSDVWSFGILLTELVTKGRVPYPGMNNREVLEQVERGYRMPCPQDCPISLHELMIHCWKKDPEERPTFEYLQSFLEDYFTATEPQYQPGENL

Sequence | phosphorylation enrichment (AncSZ) | phosphorylation enrichment (EPHB1) | phosphorylation enrichment (EPHB2) | phosphorylation enrichment (FGFR1) | phosphorylation enrichment (FGFR3) | phosphorylation enrichment (Fer (mouse)) | phosphorylation enrichment (Fes) | phosphorylation enrichment (Fyn) | phosphorylation enrichment (Hck) | phosphorylation enrichment (Jak2) | phosphorylation enrichment (MERTK) | phosphorylation enrichment (c-Abl (mouse)) | phosphorylation enrichment (c-Src) | SH2 binding enrichment (Grb2 SH2) | SH2 binding enrichment (SHP2-C SH2) | SH2 binding enrichment (c-Src SH2)
IEKLTYIDKWF [CPS1_Y872] | 0.896 | 0.515 | 0.513 | 0.638 | 0.687 | 0.532 | 0.937 | 0.412 | 0.492 | 0.817 | 0.385 | 0.619 | 0.601 | 0.724 | 0.465 | 0.311
SSNLYYRCLTA [CNGA3_Y169_W171C] | 1.05 | 0.563 | 0.766 | 0.949 | 1.13 | 0.571 | 1.12 | 0.493 | 0.807 | 1.5 | 1.89 | 0.896 | 0.63 | 0.702 | 0.611 | 0.425
KVGPGYLGSGG [RET_Y826] | 0.438 | 0.287 | 0.377 | 0.334 | 0.392 | 0.365 | 0.451 | 0.42 | 0.315 | 0.457 | 0.423 | 0.399 | 0.368 | 0.685 | 0.583 | 0.44
IVRSPYEDLED [VHL_Y185_L184P] | 1.31 | 0.58 | 0.682 | 0.571 | 0.704 | 0.562 | 1.16 | 0.506 | 0.528 | 1.35 | 0.533 | 0.748 | 0.531 | 0.962 | 0.766 | 5.64
EIVHRYVELLD [AP1S3_Y87] | 0.892 | 0.483 | 0.53 | 0.41 | 0.673 | 0.499 | 1.06 | 0.464 | 0.504 | 0.922 | 0.506 | 0.744 | 0.498 | 0.91 | 1.11 | 21.6
IRKKYYRAILE [CHD7_Y1218_Q1214R] | 0.529 | 0.388 | 0.362 | 0.423 | 0.439 | 0.389 | 0.581 | 0.405 | 0.485 | 0.439 | 0.508 | 0.478 | 0.446 | 0.596 | 0.725 | 0.394
IVAREYFSKAD [CAMK2B_Y107_E110K_YF] | 0.627 | 0.421 | 0.437 | 0.434 | 0.402 | 0.368 | 0.693 | 0.469 | 0.427 | 0.542 | 0.358 | 0.448 | 0.342 | 0.787 | 0.604 | 0.473
EDKFMYLEFPQ [PTEN_Y240_F241L] | 1.71 | 0.879 | 0.756 | 2.44 | 2.26 | 0.673 | 1.34 | 0.889 | 1.01 | 1.38 | 0.664 | 1.14 | 1.2 | 0.797 | 0.616 | 0.435
DFGSGYPNDPK [RNASEH2A_Y210_YF] | 0.778 | 0.516 | 0.469 | 0.397 | 0.579 | 0.39 | 0.678 | 0.382 | 0.423 | 0.906 | 0.424 | 0.562 | 0.464 | 0.749 | 0.712 | 0.409
IVRSLYEDPED [VHL_Y185_L188P] | 1.12 | 0.748 | 0.698 | 0.502 | 0.707 | 0.738 | 1.02 | 0.455 | 0.544 | 0.878 | 0.424 | 0.619 | 0.586 | 0.823 | 0.815 | 3.15
RRESPYGGGGG [FUS_Y526_R524S] | 0.636 | 0.46 | 0.546 | 0.402 | 0.414 | 0.436 | 0.611 | 0.451 | 0.596 | 0.74 | 0.501 | 0.569 | 0.519 | 0.907 | 0.362 | 0.566
TTKAKYKTPIF [PLD2_Y573_T577I_YF] | 0.588 | 0.38 | 0.263 | 0.481 | 0.572 | 0.487 | 0.717 | 0.499 | 0.411 | 0.659 | 0.495 | 0.632 | 0.434 | 1.06 | 1.14 | 0.764
TKVTFYKQPMF [GBA_Y451_D448V] | 0.981 | 0.439 | 0.526 | 0.461 | 0.631 | 0.42 | 0.936 | 0.506 | 0.458 | 0.853 | 0.419 | 0.588 | 0.337 | 0.777 | 0.737 | 0.453
YADGVYQALEE [DUOX2_Y70] | 1.71 | 2.83 | 2.82 | 0.751 | 0.809 | 1.55 | 1.38 | 4.15 | 3.86 | 1.11 | 1.91 | 2.69 | 4.45 | 0.806 | 0.623 | 0.765
ANNPLYKEATP [ITGB3_Y773_S778P] | 0.58 | 0.45 | 0.533 | 0.41 | 0.479 | 0.372 | 0.764 | 0.402 | 0.4 | 0.657 | 0.521 | 0.623 | 0.374 | 0.869 | 0.763 | 0.471
IGNGYYFHVFS [MYBPC3_Y1136_R1138H] | 1.46 | 0.848 | 0.552 | 1.61 | 1.52 | 0.604 | 1.39 | 0.43 | 0.45 | 1.73 | 0.503 | 0.919 | 0.354 | 1.05 | 1.83 | 0.927
AMCVCYDGVEV [ADAMTSL2_Y594_R593C] | 1.42 | 0.585 | 0.589 | 0.511 | 0.882 | 1.41 | 1.31 | 0.68 | 0.655 | 1.03 | 0.41 | 0.816 | 1.02 | 0.736 | 0.589 | 0.815

Sequence | phosphorylation enrichment (AncSZ) | phosphorylation enrichment (EPHB1) | phosphorylation enrichment (EPHB2) | phosphorylation enrichment (FGFR1) | phosphorylation enrichment (FGFR3) | phosphorylation enrichment (Fer (mouse)) | phosphorylation enrichment (Fes) | phosphorylation enrichment (Fyn) | phosphorylation enrichment (Hck) | phosphorylation enrichment (Jak2) | phosphorylation enrichment (MERTK) | phosphorylation enrichment (c-Abl (mouse)) | phosphorylation enrichment (c-Src) | SH2 binding enrichment (Grb2 SH2) | SH2 binding enrichment (SHP2-C SH2) | SH2 binding enrichment (c-Src SH2)
FMMMRYSQNIR [SDAD1_Y656_V660I] | 1.17 | 0.77 | 1.23 | 0.663 | 0.795 | 0.509 | 1.3 | 0.513 | 0.53 | 0.955 | 0.414 | 0.61 | 0.397 | 1.35 | 1.36 | 0.883
WAMPAYNRSKL [WWOX_Y293_L291P] | 0.457 | 0.289 | 0.357 | 0.296 | 0.324 | 0.281 | 0.451 | 0.328 | 0.263 | 0.402 | 0.257 | 0.339 | 0.298 | 0.909 | 0.668 | 0.431
EAIAKYDFKAT [GRB2_Y7] | 0.658 | 0.488 | 0.412 | 0.587 | 0.528 | 0.327 | 0.827 | 0.408 | 0.387 | 0.597 | 0.396 | 0.618 | 0.393 | 0.775 | 0.679 | 0.465
LIFTNYEAGKD [GSTP1_Y112_YF] | 1.21 | 0.703 | 0.571 | 0.824 | 0.646 | 0.453 | 1.39 | 0.414 | 0.582 | 1.26 | 0.675 | 1.24 | 0.998 | 0.848 | 0.55 | 0.499
MHLRQYKLLGG [GNAS_Y391_E392K] | 0.51 | 0.534 | 0.44 | 0.478 | 0.535 | 0.399 | 0.764 | 0.443 | 0.522 | 0.548 | 0.412 | 0.478 | 0.419 | 0.715 | 0.453 | 0.483
TAALWYIFLHT [ENG_Y612_S615L_YF] | 1.32 | 0.832 | 0.939 | 0.845 | 1.2 | 0.577 | 1.86 | 0.555 | 0.689 | 1.48 | 0.555 | 1.24 | 0.508 | 0.98 | 1.09 | 0.593
KLSCSYSHLSA [C4BPA_Y470_W473L] | 1.15 | 0.535 | 0.588 | 0.574 | 0.742 | 0.55 | 1.21 | 0.572 | 0.513 | 1.06 | 0.58 | 0.782 | 0.584 | 0.897 | 0.734 | 0.631
TAGFIYEKWEI [TEC_Y360_S359I] | 1.45 | 1.35 | 1.45 | 0.474 | 0.804 | 11.6 | 1.72 | 2.78 | 3.79 | 1.24 | 4.47 | 1.12 | 4.11 | 0.794 | 1.24 | 0.761
GCRSKYVGLWR [KCNQ1_Y184_G189R] | 0.638 | 0.411 | 0.325 | 0.382 | 0.591 | 0.42 | 0.519 | 0.401 | 0.36 | 0.395 | 0.394 | 0.409 | 0.365 | 1.18 | 0.744 | 0.802
SYTDPYAQPPL [KMT2D_Y2378] | 0.927 | 0.591 | 0.482 | 3.08 | 2.16 | 0.489 | 0.902 | 0.496 | 0.473 | 0.681 | 0.52 | 0.666 | 0.587 | 0.91 | 0.661 | 1.02
ISKKIYDPIHD [CTNNA3_Y614_T616P] | 0.57 | 0.48 | 0.475 | 0.436 | 0.529 | 0.446 | 0.694 | 0.636 | 0.731 | 0.516 | 0.455 | 0.445 | 0.541 | 0.691 | 0.648 | 0.426
INNIDYFKKTT [FGFR2_Y656_YF] | 0.768 | 0.46 | 0.415 | 0.567 | 0.64 | 0.36 | 0.648 | 0.409 | 0.567 | 0.605 | 0.37 | 0.373 | 0.5 | 0.893 | 0.598 | 0.445
SWSTSYSGFRF [NKAPL_Y91_YF] | 1.17 | 0.588 | 0.663 | 0.637 | 0.719 | 1.61 | 1.38 | 0.739 | 0.858 | 0.821 | 0.535 | 0.728 | 1.69 | 1.13 | 1.55 | 0.774
NDENIYKGLPD [VAV3_Y141_D139N] | 1.34 | 0.564 | 0.644 | 0.529 | 0.799 | 0.579 | 1.2 | 1.23 | 1.4 | 1.14 | 0.542 | 1.08 | 1.78 | 1.1 | 0.645 | 0.494
VIGRMYDYHVL [RPF2_Y109] | 0.966 | 1.33 | 1.7 | 6.62 | 3.7 | 9.05 | 0.859 | 0.504 | 0.538 | 0.976 | 5.17 | 0.65 | 0.643 | 0.927 | 1.71 | 1.93
ANYTEYVATSW [CDKL5_Y171_R175S] | 1.34 | 7.89 | 8.89 | 3.44 | 2.82 | 0.555 | 0.867 | 0.722 | 0.672 | 0.897 | 0.815 | 0.812 | 0.763 | 0.874 | 0.665 | 0.592
